Measured values as given in the supplement of paper PMC10567573.

B1: NET1 (parent)
chain: IKRTIRVLDVNNQSFREQEEPSNK

Variants of: B1
Experiment: protein stability index of a GFP-peptide fusion (GPS, HEK-293T) (PSI 1-6); higher = more stable
Settings: c terminus: a fixed tail appended
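Note: lentivirally expressed fusions sorted by FACS into six bins by GFP to DsRed ratio, PSI derived from sequencing read proportions per bin multiplied by bin number.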

Row | Variant | protein stability index
1 | IKRTIRFLDVNNQSFREQEEPSNK [V7F] | 3.35
2 | IKRTIRALDVNNQSFREQEEPSNK [V7A] | 3.3
3 | IKRRIRVLDVNNQSFREQEEPSNK [T4R] | 3.99
4 | IKRDIRVLDVNNQSFREQEEPSNK [T4D] | 4.51
5 | IKRCIRVLDVNNQSFREQEEPSNK [T4C] | 3.51
6 | IKRIIRVLDVNNQSFREQEEPSNK [T4I] | 1.79
7 | IKRKIRVLDVNNQSFREQEEPSNK [T4K] | 3.75
8 | IKRNIRVLDVNNQSFREQEEPSNK [T4N] | 4.13
9 | IKRHIRVLDVNNQSFREQEEPSNK [T4H] | 3.89
10 | IKRYIRVLDVNNQSFREQEEPSNK [T4Y] | 3.09
11 | IKRFIRVLDVNNQSFREQEEPSNK [T4F] | 2.88
12 | IKRPIRVLDVNNQSFREQEEPSNK [T4P] | 3.89
13 | IKRSIRVLDVNNQSFREQEEPSNK [T4S] | 4.09
14 | IKRVIRVLDVNNQSFREQEEPSNK [T4V] | 2.51
15 | IKRLIRVLDVNNQSFREQEEPSNK [T4L] | 2.59
16 | IKREIRVLDVNNQSFREQEEPSNK [T4E] | 4.96
17 | IKRWIRVLDVNNQSFREQEEPSNK [T4W] | 2.38
18 | IKRMIRVLDVNNQSFREQEEPSNK [T4M] | 3.3
19 | IKRQIRVLDVNNQSFREQEEPSNK [T4Q] | 3.86
20 | IKRGIRVLDVNNQSFREQEEPSNK [T4G] | 3.41
21 | IKRTLRVLDVNNQSFREQEEPSNK [I5L] | 2.94
22 | IKRTWRVLDVNNQSFREQEEPSNK [I5W] | 3.31
23 | IKRTDRVLDVNNQSFREQEEPSNK [I5D] | 4.91
24 | IKRTMRVLDVNNQSFREQEEPSNK [I5M] | 2.55

Row | Variant | protein stability index
25 | IKRTKRVLDVNNQSFREQEEPSNK [I5K] | 4.75
26 | IKRTARVLDVNNQSFREQEEPSNK [I5A] | 4.53
27 | IKRTFRVLDVNNQSFREQEEPSNK [I5F] | 3.39
28 | IKRTERVLDVNNQSFREQEEPSNK [I5E] | 5.05
29 | IKRTRRVLDVNNQSFREQEEPSNK [I5R] | 4.82
30 | IKRTYRVLDVNNQSFREQEEPSNK [I5Y] | 3.95
31 | IKRTPRVLDVNNQSFREQEEPSNK [I5P] | 3.78
32 | IKRTSRVLDVNNQSFREQEEPSNK [I5S] | 4.56
33 | IKRTQRVLDVNNQSFREQEEPSNK [I5Q] | 5.04
34 | IKRTTRVLDVNNQSFREQEEPSNK [I5T] | 5.1
35 | IKRTCRVLDVNNQSFREQEEPSNK [I5C] | 4.41
36 | IKRTNRVLDVNNQSFREQEEPSNK [I5N] | 4.08
37 | IKRTHRVLDVNNQSFREQEEPSNK [I5H] | 4.69
38 | ICRTIRVLDVNNQSFREQEEPSNK [K2C] | 4.05
39 | ILRTIRVLDVNNQSFREQEEPSNK [K2L] | 3.72
40 | ITRTIRVLDVNNQSFREQEEPSNK [K2T] | 4.8
41 | IQRTIRVLDVNNQSFREQEEPSNK [K2Q] | 4.63
42 | IGRTIRVLDVNNQSFREQEEPSNK [K2G] | 4.51
43 | IERTIRVLDVNNQSFREQEEPSNK [K2E] | 4.01
44 | IARTIRVLDVNNQSFREQEEPSNK [K2A] | 3.74
45 | IVRTIRVLDVNNQSFREQEEPSNK [K2V] | 3.33
46 | IHRTIRVLDVNNQSFREQEEPSNK [K2H] | 4.01
47 | IMRTIRVLDVNNQSFREQEEPSNK [K2M] | 3.75
48 | IDRTIRVLDVNNQSFREQEEPSNK [K2D] | 4.83

Row | Variant | protein stability index
49 | IRRTIRVLDVNNQSFREQEEPSNK [K2R] | 2.93
50 | IPRTIRVLDVNNQSFREQEEPSNK [K2P] | 4.47
51 | IYRTIRVLDVNNQSFREQEEPSNK [K2Y] | 2.6
52 | IFRTIRVLDVNNQSFREQEEPSNK [K2F] | 3.04
53 | INRTIRVLDVNNQSFREQEEPSNK [K2N] | 4.34
54 | IIRTIRVLDVNNQSFREQEEPSNK [K2I] | 3.05
55 | ISRTIRVLDVNNQSFREQEEPSNK [K2S] | 3.29
56 | IWRTIRVLDVNNQSFREQEEPSNK [K2W] | 3.11
57 | IKYTIRVLDVNNQSFREQEEPSNK [R3Y] | 2.19
58 | IKHTIRVLDVNNQSFREQEEPSNK [R3H] | 4.39
59 | IKTTIRVLDVNNQSFREQEEPSNK [R3T] | 4.02
60 | IKKTIRVLDVNNQSFREQEEPSNK [R3K] | 3.93
61 | IKGTIRVLDVNNQSFREQEEPSNK [R3G] | 4.1
62 | IKCTIRVLDVNNQSFREQEEPSNK [R3C] | 2.69
63 | IKITIRVLDVNNQSFREQEEPSNK [R3I] | 1.37
64 | IKMTIRVLDVNNQSFREQEEPSNK [R3M] | 2.08
65 | IKLTIRVLDVNNQSFREQEEPSNK [R3L] | 1.9
66 | IKDTIRVLDVNNQSFREQEEPSNK [R3D] | 4.81
67 | IKWTIRVLDVNNQSFREQEEPSNK [R3W] | 1.49
68 | IKVTIRVLDVNNQSFREQEEPSNK [R3V] | 1.73
69 | IKSTIRVLDVNNQSFREQEEPSNK [R3S] | 4.71
70 | IKQTIRVLDVNNQSFREQEEPSNK [R3Q] | 4.44
71 | IKFTIRVLDVNNQSFREQEEPSNK [R3F] | 1.75
72 | IKPTIRVLDVNNQSFREQEEPSNK [R3P] | 4.57

Row | Variant | protein stability index
73 | IKETIRVLDVNNQSFREQEEPSNK [R3E] | 4.92
74 | IKNTIRVLDVNNQSFREQEEPSNK [R3N] | 4.86
75 | IKATIRVLDVNNQSFREQEEPSNK [R3A] | 3.48
76 | CKRTIRVLDVNNQSFREQEEPSNK [I1C] | 4.76
77 | FKRTIRVLDVNNQSFREQEEPSNK [I1F] | 4.03
78 | QKRTIRVLDVNNQSFREQEEPSNK [I1Q] | 3.69
79 | EKRTIRVLDVNNQSFREQEEPSNK [I1E] | 4.07
80 | LKRTIRVLDVNNQSFREQEEPSNK [I1L] | 3.27
81 | WKRTIRVLDVNNQSFREQEEPSNK [I1W] | 3.45
82 | SKRTIRVLDVNNQSFREQEEPSNK [I1S] | 3.99
83 | DKRTIRVLDVNNQSFREQEEPSNK [I1D] | 4.58
84 | MKRTIRVLDVNNQSFREQEEPSNK [I1M] | 3.63
85 | HKRTIRVLDVNNQSFREQEEPSNK [I1H] | 4.81
86 | KKRTIRVLDVNNQSFREQEEPSNK [I1K] | 4.14
87 | GKRTIRVLDVNNQSFREQEEPSNK [I1G] | 3.67
88 | YKRTIRVLDVNNQSFREQEEPSNK [I1Y] | 4.1
89 | TKRTIRVLDVNNQSFREQEEPSNK [I1T] | 4.49
90 | VKRTIRVLDVNNQSFREQEEPSNK [I1V] | 3.54
91 | RKRTIRVLDVNNQSFREQEEPSNK [I1R] | 3.73
92 | AKRTIRVLDVNNQSFREQEEPSNK [I1A] | 3.82
93 | NKRTIRVLDVNNQSFREQEEPSNK [I1N] | 3.61
94 | PKRTIRVLDVNNQSFREQEEPSNK [I1P] | 3.94
